From US20260008815A1, “CYCLIC PEPTIDE OR SALT THEREOF, AND USES THEREOF” (FUJIFILM Corporation, priority 2023, published 2026)
Bridge positions count the residues as written; N and C are the ends. Ends that are not written are not given here. COCH2 = acetyl group that carries the bridge

Biological target: T1, Recombinant Human FGFR2 alpha (IIIc) Fc Chimera Protein (Homo sapiens, UniProt P21802)
T1 construct: Fc (chimera); purchased R&D systems 712-FR-050
Assay: ELISA binding affinity of enzymatically synthesized peptide to FGFR
Conditions: ELISA luminescence signal at 10 nmol/L peptide, SEQ ID NO: 47 at 10 nmol/L standardized to 1; enzyme synthesis product
Method in brief: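 FGFR2 alpha (IIIc) Fc chimera (5 ng/well) was immobilized, and Myc-tagged peptide was bound 3 h at room temperature, then detected with anti-Myc antibody (2 h) and chemiluminescent substrate. Signal was corrected against FGFR-free wells. Score A–D was the luminescence at 10 nmol/L peptide, normalized to cyclic peptide SEQ ID NO: 47.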

T1 sequence (P21802 with tags, fused parts or gaps limits assumed): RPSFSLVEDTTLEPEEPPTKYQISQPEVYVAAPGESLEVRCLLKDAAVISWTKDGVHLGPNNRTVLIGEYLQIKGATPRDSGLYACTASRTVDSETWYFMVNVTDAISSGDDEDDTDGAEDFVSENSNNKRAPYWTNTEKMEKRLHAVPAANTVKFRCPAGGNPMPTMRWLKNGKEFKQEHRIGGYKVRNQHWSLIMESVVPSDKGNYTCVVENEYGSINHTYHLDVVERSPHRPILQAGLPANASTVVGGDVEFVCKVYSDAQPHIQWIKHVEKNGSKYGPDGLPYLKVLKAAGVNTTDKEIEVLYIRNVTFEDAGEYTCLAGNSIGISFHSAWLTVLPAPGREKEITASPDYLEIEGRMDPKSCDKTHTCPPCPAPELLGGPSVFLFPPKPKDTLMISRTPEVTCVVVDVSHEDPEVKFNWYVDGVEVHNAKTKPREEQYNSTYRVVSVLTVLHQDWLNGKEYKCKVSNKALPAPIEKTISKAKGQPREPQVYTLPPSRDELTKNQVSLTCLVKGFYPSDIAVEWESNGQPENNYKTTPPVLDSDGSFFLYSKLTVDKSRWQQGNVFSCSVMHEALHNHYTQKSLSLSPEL

Row | Substance | Evaluation result of binding affinity to FGFR
1 | 323 (YCAENYLDPEQYQYFIYFK(COCH2)Y; thioether 2-19 (inferred)) [compound 323] | A (0.7 or more)
2 | 324 (YCEANYLDPEQYQYFIYFK(COCH2)Y; thioether 2-19 (inferred)) [compound 324] | A (0.7 or more)
3 | 326 (YCEENALDPEQYQYFIYFK(COCH2)Y; thioether 2-19 (inferred)) [compound 326] | C (0.1 or more and less than 0.5)
4 | 330 (YCEENYLDPAQYQYFIYFK(COCH2)Y; thioether 2-19 (inferred)) [compound 330] | A (0.7 or more)
5 | 331 (YCEENYLDPEQYAYFIYFK(COCH2)Y; thioether 2-19 (inferred)) [compound 331] | A (0.7 or more)
6 | 332 (YCEENYLDPEQYQYFAYFK(COCH2)Y; thioether 2-19 (inferred)) [compound 332] | A (0.7 or more)
7 | 333 (YCEENYLDPEQYQYFIAFK(COCH2)Y; thioether 2-19 (inferred)) [compound 333] | A (0.7 or more)
8 | 334 (YCEENYLDPEQYQYFIYFK(COCH2)A; thioether 2-19 (inferred)) [compound 334] | A (0.7 or more)
9 | 335 (KCEENYLDPEQYQYFIYFK(COCH2)Y; thioether 2-19 (inferred)) [compound 335] | A (0.7 or more)
10 | 336 (YCKENYLDPEQYQYFIYFK(COCH2)Y; thioether 2-19 (inferred)) [compound 336] | A (0.7 or more)
11 | 338 (YCEENKLDPEQYQYFIYFK(COCH2)Y; thioether 2-19 (inferred)) [compound 338] | C (0.1 or more and less than 0.5)
12 | 339 (YCEENYKDPEQYQYFIYFK(COCH2)Y; thioether 2-19 (inferred)) [compound 339] | A (0.7 or more)
13 | 340 (YCEENYLKPEQYQYFIYFK(COCH2)Y; thioether 2-19) [compound 340] | C (0.1 or more and less than 0.5)
14 | 342 (YCEENYLDPKQYQYFIYFK(COCH2)Y; thioether 2-19) [compound 342] | A (0.7 or more)
15 | 343 (YCEENYLDPEQYKYFIYFK(COCH2)Y; thioether 2-19) [compound 343] | A (0.7 or more)
16 | 344 (YCEENYLDPEQYQYFKYFK(COCH2)Y; thioether 2-19) [compound 344] | A (0.7 or more)

Row | Substance | Evaluation result of binding affinity to FGFR
17 | 345 (YCEENYLDPEQYQYFIKFK(COCH2)Y; thioether 2-19) [compound 345] | A (0.7 or more)
18 | 347 (MCEENYLDPEQYQYFIYFK(COCH2)Y; thioether 2-19) [compound 347] | A (0.7 or more)
19 | 349 (YCEMNYLDPEQYQYFIYFK(COCH2)Y; thioether 2-19) [compound 349] | A (0.7 or more)
20 | 350 (YCEENMLDPEQYQYFIYFK(COCH2)Y; thioether 2-19) [compound 350] | A (0.7 or more)
21 | 352 (YCEENYLMPEQYQYFIYFK(COCH2)Y; thioether 2-19) [compound 352] | A (0.7 or more)
22 | 353 (YCEENYLDMEQYQYFIYFK(COCH2)Y; thioether 2-19) [compound 353] | A (0.7 or more)
23 | 354 (YCEENYLDPMQYQYFIYFK(COCH2)Y; thioether 2-19) [compound 354] | A (0.7 or more)
24 | 355 (YCEENYLDPEQMQYFIYFK(COCH2)Y; thioether 2-19) [compound 355] | C (0.1 or more and less than 0.5)
25 | 356 (YCEENYLDPEQYMYFIYFK(COCH2)Y; thioether 2-19) [compound 356] | A (0.7 or more)
26 | 358 (YCEENYLDPEQYQYFMYFK(COCH2)Y; thioether 2-19) [compound 358] | A (0.7 or more)
27 | 360 (YCEENYLDPEQYQYFIYFK(COCH2)M; thioether 2-19) [compound 360] | A (0.7 or more)
28 | 361 (QCYYLYWYLYK(COCH2)I; thioether 2-11) [compound 361] | C (0.1 or more and less than 0.5)
29 | 362 (LCYLYQYLYTTK(COCH2)Y; thioether 2-12) [compound 362] | C (0.1 or more and less than 0.5)
30 | 364 (QCLQYLYQYLFK(COCH2)I; thioether 2-12) [compound 364] | C (0.1 or more and less than 0.5)
31 | 366 (DCQQYYLYLYLWK(COCH2)I; thioether 2-13) [compound 366] | C (0.1 or more and less than 0.5)
32 | 367 (HCQLEYLYTYVLK(COCH2)I; thioether 2-13) [compound 367] | C (0.1 or more and less than 0.5)

Now from value to substance:

Row | Evaluation result of binding affinity to FGFR | Substance
33 | C (0.1 or more and less than 0.5) | 325 (YCEEAYLDPEQYQYFIYFK(COCH2)Y; thioether 2-19 (inferred)) [compound 325]
34 | C (0.1 or more and less than 0.5) | 327 (YCEENYADPEQYQYFIYFK(COCH2)Y; thioether 2-19 (inferred)) [compound 327]
35 | A (0.7 or more) | 328 (YCEENYLAPEQYQYFIYFK(COCH2)Y; thioether 2-19 (inferred)) [compound 328]
36 | A (0.7 or more) | 329 (YCEENYLDAEQYQYFIYFK(COCH2)Y; thioether 2-19 (inferred)) [compound 329]
37 | A (0.7 or more) | 337 (YCEKNYLDPEQYQYFIYFK(COCH2)Y; thioether 2-19 (inferred)) [compound 337]
38 | A (0.7 or more) | 341 (YCEENYLDKEQYQYFIYFK(COCH2)Y; thioether 2-19) [compound 341]
39 | A (0.7 or more) | 346 (YCEENYLDPEQYQYFIYFK(COCH2)K; thioether 2-19) [compound 346]
40 | A (0.7 or more) | 348 (YCMENYLDPEQYQYFIYFK(COCH2)Y; thioether 2-19) [compound 348]
41 | A (0.7 or more) | 351 (YCEENYMDPEQYQYFIYFK(COCH2)Y; thioether 2-19) [compound 351]
42 | C (0.1 or more and less than 0.5) | 357 (YCEENYLDPEQYQMFIYFK(COCH2)Y; thioether 2-19) [compound 357]
43 | A (0.7 or more) | 359 (YCEENYLDPEQYQYFIMFK(COCH2)Y; thioether 2-19) [compound 359]
44 | C (0.1 or more and less than 0.5) | 363 (LCYLYQYIYTAK(COCH2)F; thioether 2-12) [compound 363]
45 | C (0.1 or more and less than 0.5) | 365 (LCYLYQYLYQAK(COCH2)F; thioether 2-12) [compound 365]
46 | C (0.1 or more and less than 0.5) | 368 (QCLIQDLYAYIFK(COCH2)L; thioether 2-13) [compound 368]
